# Experimental data from article PMC9929473, “Ensembles of human myosin-19 bound to calmodulin and regulatory light chain RLC12B drive multimicron transport” (The Journal of Biological Chemistry, 2023).
# B1: RLC12B coexpressed with Myo19-3xIQ-BioTag in Sf9 cells (natural protein, human, UniProt O14950 1-172, looked up)
# chain: MSSKKAKTKTTKKRPQRATSNVFAMFDQSQIQEFKEAFNMIDQNRDGFIDKEDLHDMLASLGKNPTDAYLDAMMNEAPGPINFTMFLTMFGEKLNGTDPEDVIRNAFACFDEEATGTIQEDYLRELLTTMGDRFTDEEVDELYREAPIDKKGNFNYIEFTRILKHGAKDKDD
# notes: Myosin regulatory light chain 12B (RLC12B), O14950-1; also called MYL12B; source: Sf9-baculovirus, coexpressed and copurified with Myo19-3xIQ-BioTag
# Assays:
# [1] = molecular target: Myo19-3xIQ-BioTag (human myosin-19 motor domain and IQ region with N-terminal FLAG tag and C-terminal biotin tag) (human) (UniProt Q96H55)
# [2] = molecular target: Myo19-3xIQ-BioTag (human myosin-19 motor domain and IQ region with N-terminal FLAG tag and C-terminal biotin tag) (human) (UniProt Q96H55); assay: co-sedimentation; about 2 μM Myo19-3xIQ-BioTag preparation, 4 μM F-actin, 10 μM CaM in S-Buffer (15 mM Hepes pH 7.5, 7 mM imidazole, 125 mM NaCl, 5 mM MgCl2, 1 mM EGTA, 1 mM DTT), 200,000g 20 min; pellet on SDS-PAGE, gel densitometry with BSA, RLC12B and CaM standards; no calcium
# [3] = molecular target: Myo19-3xIQ-BioTag (human myosin-19 motor domain and IQ region with N-terminal FLAG tag and C-terminal biotin tag) (human) (UniProt Q96H55); remark: listed apart in the source
# [4] = molecular target: Myo19-3xIQ-BioTag (human myosin-19 motor domain and IQ region with N-terminal FLAG tag and C-terminal biotin tag) (human) (UniProt Q96H55); remark: listed apart in the source
# [5] = molecular target: Myo19-3xIQ-BioTag (human myosin-19 motor domain and IQ region with N-terminal FLAG tag and C-terminal biotin tag) (human) (UniProt Q96H55); assay: co-sedimentation; as a4 with 1.1 mM CaCl2 added (0.1 mM free Ca2+)
# [6] = molecular target: Myo19-3xIQ-BioTag (human myosin-19 motor domain and IQ region with N-terminal FLAG tag and C-terminal biotin tag) (human) (UniProt Q96H55); assay: SEC-MALS; complex fixed with glutaraldehyde during 5 to 30% glycerol gradient centrifugation (GraFix; 20 mM Hepes pH 7.5, 0.2 M NaCl, 5 mM MgCl2, 1 mM EGTA, 4 °C, without calcium), then TSKgel SuperSW2000 with MALS
# [7] = molecular target: T1, Myo19-3xIQ-BioTag (human myosin-19 motor domain and IQ region with N-terminal FLAG tag and C-terminal biotin … (human, UniProt Q96H55 1-851, biotinylated on the BioTag during expression)); assay: co-sedimentation; about 2 μM Myo19-3xIQ-BioTag preparation, 4 μM F-actin, 10 μM CaM in S-Buffer (15 mM Hepes pH 7.5, 7 mM imidazole, 125 mM NaCl, 5 mM MgCl2, 1 mM EGTA, 1 mM DTT), 200,000g 20 min; pellet on SDS-PAGE, gel densitometry with BSA, RLC12B and CaM standards; no calcium; settings: both partners purified
# T1 construct: also called HC; biotinylated Myo19; not shown: biotin tag (BioTag), C-terminal, kept
# [8] = molecular target: T1, Myo19-3xIQ-BioTag (human myosin-19 …); assay: SEC-MALS; complex fixed with glutaraldehyde during 5 to 30% glycerol gradient centrifugation (GraFix; 20 mM Hepes pH 7.5, 0.2 M NaCl, 5 mM MgCl2, 1 mM EGTA, 4 °C, without calcium), then TSKgel SuperSW2000 with MALS; settings: both partners purified
molecule,measurement,setting,value
Calmodulin (CaM) coexpressed with Myo19-3xIQ-BioTag in Sf9 cells and added in excess (from UniProt P0DP23 1-149) (natural protein),actin gliding speed with 0.1 mM free calcium against added CaM (0.1 to 10 μM CaM–Ca2+); highest speed at 4 μM,[1],210 nm/s
same,CaM to RLC12B ratio bound to Myo19-3xIQ (CaM per RLC12B),[2],1.9
same,stoichiometry N,[2],3.4
same,actin gliding speed of Myo19 coexpressed with CaM alone against added CaM in the presence of 1 μM RLC12B; EC50 of a hyperbolic fit,[3],200 nM
same,actin gliding speed of Myo19 coexpressed with CaM alone against added CaM; EC50 of a hyperbolic fit,[3],200 nM
same,"actin gliding speed of Myo19-3xIQ-BioTag (copurified with RLC12B and CaM) against added CaM, 37 °C, no calcium; EC50 of a hyperbolic fit",[4],700 nM
same,CaM:RLC12B ratio bound to Myo19-3xIQ (CaM per RLC12B),[5],2.8
same,stoichiometry N,[6],2
RLC12B purified from E. coli (MBP removed by TEV protease) (from UniProt O14950 1-172) (natural protein),actin gliding speed when 1 μM RLC12B was added in solution in the presence of CaM,[3],250 nm/s
same,"actin gliding speed of Myo19-3xIQ-BioTag (copurified with RLC12B and CaM) against added RLC12B alone, 37 °C; maximal speed at 1 μM RLC12B",[4],150 nm/s
same,actin gliding speed with 4 μM CaM fixed against increasing RLC12B; IC50 of an inhibition fit,[4],200 nM
B1,stoichiometry N,[7],1.8
same,stoichiometry N,[8],1
